One molecule from patent CN111410689A (UNIV CHONGQING TECHNOLOGY, dated 2020) can be followed below.

This test concerns the target T1, HPV18E7蛋白 (in HeLa cells and HPV18-positive cervical adenocarcinoma tissue) (HPV18, UniProt P06788 1-105).
T1 construct: whole, on cells; Native intracellular protein in cells, tissue sections or total lysate; also called HeLa细胞总蛋白中的HPV18E7蛋白
T1 sequence: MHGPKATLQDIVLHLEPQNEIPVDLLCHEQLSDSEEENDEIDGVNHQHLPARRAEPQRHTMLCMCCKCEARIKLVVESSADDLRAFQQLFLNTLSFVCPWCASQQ
As to the kind of experiment: immunocytochemistry on HeLa cells (HPV18 positive), DAB.

B1: 抗HPV16E7蛋白单抗69E2 (antibody, mouse IgG2a, kappa, V domains shown)
VH: QVQLQQSGPEVVRPGVSVKISCKGSGYTFTDYAMHWVKQSHAKSLEWIGVISTYNGNTNYNQKFKGKATVTVDKSSSTAYMELARLTSEDSAIYYCARRGFGNSWFAYWGQGTLVTVSA
VL: ENVLTQSPAIMSASPGGKVTMTCSASSGVSYMHWYQQKSSTSPKLWIYDTSNLASGVPGRFSGSGSGNSYSLTISSMEAEDVATYYCFQGSGYPFTFGSGTKLEIRR
notes: Mouse IgG2a from hybridoma, purified from ascites; also called HPV16E7-69E2; CCTCC NO:C2019181
As for B1, the binding result is “no binding (tested: 7.8125ng/孔到1μg/孔)”.
